Results published in patent US6881545 (Takeda / Millennium, dated 2005).
No end group written: not given here.

Molecular target: T1, human pituitary-derived G protein-coupled receptor protein encoded by phGR3 (hGR3), expressed on CHO-19P2 / … (human, UniProt P49683 1-370)
T1 construct: CHO-19P2-9 is a monoclone of CHO-19P2 selected for a stronger response to 19P2-L31; also called full-length receptor protein; 19P2 receptor
T1 sequence: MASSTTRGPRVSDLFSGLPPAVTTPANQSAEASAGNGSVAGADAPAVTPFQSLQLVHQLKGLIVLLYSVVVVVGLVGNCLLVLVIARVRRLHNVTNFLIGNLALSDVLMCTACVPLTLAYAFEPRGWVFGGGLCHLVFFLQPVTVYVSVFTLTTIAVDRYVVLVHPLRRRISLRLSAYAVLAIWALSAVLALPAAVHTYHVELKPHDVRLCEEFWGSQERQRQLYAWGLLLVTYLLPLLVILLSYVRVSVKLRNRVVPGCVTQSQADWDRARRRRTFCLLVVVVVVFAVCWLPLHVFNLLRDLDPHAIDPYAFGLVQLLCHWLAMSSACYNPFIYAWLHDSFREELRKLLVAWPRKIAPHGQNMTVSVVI
Experiment: radioligand binding on live CHO-19P2-9 cells, 200 pM tracer, non-specific binding with 200 nM unlabeled 19P2-L31, filtration
Source text: As receptor-expressing CHO cells, CHO-19P2-9; mono-clone of CHO-19P2, CHO-UHR-1, and mock CHO were used in this experiment. CHO-19P2-9 cells are ones selected from CHO-19P2 cells by ultradilution technique using 96-well microplate as clone which indicated stronger arachidonic acid metabolic-release promoting reaction by 19P2-L31. The mock CHO cells are ones for control which were transformed with expression vector pAKKO alone. These cells cultured in flasks for culturing tissues were harvested with 5 mM EDTA/PBS, and then resuspended in HBSS containing 0.05% BSA and 0.05% CHAPS at 0.5 ×10^7 cells/ml. […] The reaction mixture were diluted with 2 ml of an ice-cold beffer (50 mM Tris-HCl pH7.5 containing 5 mM EDTA, 0.05% BSA, and 0.05% CHAPS) and immediately filtered though glass filters GF/F (Whattman) which were pre-wetted with the buffer containing 0.3% polyethylenimine. The glass filters were subjected to γ-counting. Non-specific binding was determined in the presence of 200 nM unlabeled 19P2-L31.

binding result: binds
B1: [^125I]-19P2-L31 (19P2-L31 radioiodinated with [^125I]-Bolton-Hunter Reagent) (peptide)
peptide: SRAHQHSMEIRTPDINPAWYAGRGIRPVGRF-NH2
modifications: also: radioiodinated with [125I]-Bolton-Hunter reagent, site not given here
notes: also called radioiodinated 19P2-L31; radioiodinated ligand polypeptide
